The target of one experiment is T1, Apaf-1 (human, UniProt O14727 1-1248, limits assumed).
T1 sequence (looked up): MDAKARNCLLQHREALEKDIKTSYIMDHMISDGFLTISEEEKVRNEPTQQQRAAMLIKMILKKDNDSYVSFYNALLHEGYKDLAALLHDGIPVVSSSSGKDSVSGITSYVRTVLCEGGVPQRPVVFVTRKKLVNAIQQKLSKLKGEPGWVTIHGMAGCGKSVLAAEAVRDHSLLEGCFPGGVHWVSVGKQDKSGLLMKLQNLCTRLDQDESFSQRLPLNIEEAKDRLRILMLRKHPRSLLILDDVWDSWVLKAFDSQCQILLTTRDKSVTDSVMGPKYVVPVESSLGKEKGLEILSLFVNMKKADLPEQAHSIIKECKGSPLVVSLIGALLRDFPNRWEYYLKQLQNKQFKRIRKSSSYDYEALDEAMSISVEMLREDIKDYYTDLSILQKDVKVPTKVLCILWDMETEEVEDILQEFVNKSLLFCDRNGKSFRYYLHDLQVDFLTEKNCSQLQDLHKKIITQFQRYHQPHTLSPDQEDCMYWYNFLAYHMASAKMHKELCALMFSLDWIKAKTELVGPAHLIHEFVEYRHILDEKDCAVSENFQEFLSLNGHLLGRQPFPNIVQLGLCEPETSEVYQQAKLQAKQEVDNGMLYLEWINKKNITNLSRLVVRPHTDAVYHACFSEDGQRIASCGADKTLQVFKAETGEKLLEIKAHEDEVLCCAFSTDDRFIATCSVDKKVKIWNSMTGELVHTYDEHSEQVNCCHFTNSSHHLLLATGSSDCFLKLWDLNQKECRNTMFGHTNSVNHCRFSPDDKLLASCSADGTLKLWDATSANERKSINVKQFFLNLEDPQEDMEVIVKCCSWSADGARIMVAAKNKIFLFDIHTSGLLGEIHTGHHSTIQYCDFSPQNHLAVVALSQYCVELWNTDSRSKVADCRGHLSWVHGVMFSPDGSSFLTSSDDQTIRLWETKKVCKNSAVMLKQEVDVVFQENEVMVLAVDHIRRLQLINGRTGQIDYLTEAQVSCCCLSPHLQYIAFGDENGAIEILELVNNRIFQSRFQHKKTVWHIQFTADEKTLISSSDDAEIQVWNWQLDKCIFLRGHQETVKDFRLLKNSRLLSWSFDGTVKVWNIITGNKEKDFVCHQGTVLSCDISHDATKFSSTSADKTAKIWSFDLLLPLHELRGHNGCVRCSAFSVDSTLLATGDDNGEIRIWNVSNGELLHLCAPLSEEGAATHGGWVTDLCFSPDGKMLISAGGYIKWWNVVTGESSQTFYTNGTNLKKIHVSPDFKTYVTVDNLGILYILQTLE
In words: GST pull-down in vitro or co-immunoprecipitation from 293 T cells (data not shown). How it is done: (§1) Cells were then centrifuged at 10000 g for 15 min and supernatants were incubated for 2 h at 4° C. with gluthatione Sepharose 4B resin (Amersham Pharmacia Biotech). The protein-bound resin (30 μl) was washed with GST buffer and incubated overnight at 4° C. in the presence of 5 μl of ³⁵S-labeled in vitro-translated products. Labeled proteins were prepared from pcDNA3 constructs by in vitro transcription and translation in the presence of ³⁵S-methionine using T7-coupled transcription/translation TNT kit according to the manufacturer's instructions (Promega, Madison, Wis.). Samples of the protein-bound resins were washed three times in GST buffer, boiled in sodium dodecyl sulfate (SDS) Laemmli sample buffer and fractionated by electrophoresis on an SDS-polyacrylamide gel. Proteins were then visualized by autoradiography.
(§2) Human embryonic kidney 293 T cells, were cultured in […] dishes in Dulbecco modified essential medium (DMEM) supplemented with 10% fetal bovine serum (FBS) and antibiotics (Life Technologies). Cells at 50% confluency, were transiently co-transfected with equal amounts of T7-pcDNA3 and Flag-pCMV2 constructs (total DNA of 10 μg/dish) in OptiMEM using the lipofectamine method according to the manufacturer's recommendations (Life Technologies). Twelve hours after transfection, OptiMEM was replaced with DMEM/10% FBS. Twenty four hours later, cells were lysed in 300 μl of a buffer containing 25 mM tris(hydroxymethylaminomethane), pH 7.6, 150 mM NaCl, 1% nonidet-P40, and PMSF. Samples were centrifuged. One third of the supernatant was put aside to verify by Western blot the expression of the proteins. The remaining 200 μl of supernatant were incubated for 2 h at 4° C. with anti-Flag M5 plus M2 monoclonal antibodies (Ab; Sigma). The immune complexes were precipitated overnight at 4° C. with protein-G Sepharose (Amersham-Pharmacia Biotech), washed extensively and then eluted by boiling in SDS-sample buffer. The eluted proteins were resolved by SDS-PAGE and detected by Western blot analysis with horseradish peroxidase (HRP)-conjugated anti-T7 Ab (Novagen, Madison, Wis.). Bands were then detected using enhanced chemoluminescence kit (Amersham Pharmacia Biotech).

For a further experiment, the target named is c-IAP2 (UniProt Q13489 1-604, limits assumed). The experiment is described as above. How it is done:
as §1, §2

Another experiment addresses T2, c-CLAP (human, UniProt O95999 1-233, limits assumed).
T2 sequence (looked up): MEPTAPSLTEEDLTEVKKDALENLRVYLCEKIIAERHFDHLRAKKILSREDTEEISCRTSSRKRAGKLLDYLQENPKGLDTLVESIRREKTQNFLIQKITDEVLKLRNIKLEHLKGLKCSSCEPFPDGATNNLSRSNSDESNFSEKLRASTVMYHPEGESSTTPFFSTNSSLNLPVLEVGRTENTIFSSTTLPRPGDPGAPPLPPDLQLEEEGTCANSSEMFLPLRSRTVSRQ
The description is as above. How it is done: as §1, §2

The next experiment addresses T3, pro-caspase-4 (UniProt P49662 1-377, limits assumed).
T3 sequence (looked up): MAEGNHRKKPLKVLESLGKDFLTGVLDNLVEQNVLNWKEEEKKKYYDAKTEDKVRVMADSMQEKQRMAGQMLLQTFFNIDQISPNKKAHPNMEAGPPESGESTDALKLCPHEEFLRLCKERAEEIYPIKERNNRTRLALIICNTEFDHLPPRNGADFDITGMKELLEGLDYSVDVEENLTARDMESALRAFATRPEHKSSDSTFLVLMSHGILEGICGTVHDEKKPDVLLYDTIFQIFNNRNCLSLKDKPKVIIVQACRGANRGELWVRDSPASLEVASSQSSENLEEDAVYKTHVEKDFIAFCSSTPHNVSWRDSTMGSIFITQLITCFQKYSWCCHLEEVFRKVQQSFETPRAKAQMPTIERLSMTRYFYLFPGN
The experiment is described as above. How it is done:
as §1, §2

The target of another experiment is T4, pro-caspase-2 (UniProt P42575 1-452, limits assumed).
T4 sequence (looked up): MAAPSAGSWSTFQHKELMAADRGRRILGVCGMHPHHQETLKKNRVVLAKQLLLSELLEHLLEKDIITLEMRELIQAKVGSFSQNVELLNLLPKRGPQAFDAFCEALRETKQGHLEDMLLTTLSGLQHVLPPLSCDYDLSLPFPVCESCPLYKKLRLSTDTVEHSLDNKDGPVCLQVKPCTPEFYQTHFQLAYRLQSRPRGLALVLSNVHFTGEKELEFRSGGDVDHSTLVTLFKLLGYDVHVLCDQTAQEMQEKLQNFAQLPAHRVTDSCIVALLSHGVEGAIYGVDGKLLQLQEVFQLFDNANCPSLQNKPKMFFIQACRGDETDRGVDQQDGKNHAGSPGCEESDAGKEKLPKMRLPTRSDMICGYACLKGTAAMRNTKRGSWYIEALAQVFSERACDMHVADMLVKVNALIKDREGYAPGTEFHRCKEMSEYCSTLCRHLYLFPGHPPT
The experiment is described as above. How it is done:
as §1, §2

For experiment [1], the target named is T5, CRADD (human, UniProt P78560 1-199, limits assumed).
T5 construct: also called T7-tagged CRADD
T5 sequence (P78560 whole entry): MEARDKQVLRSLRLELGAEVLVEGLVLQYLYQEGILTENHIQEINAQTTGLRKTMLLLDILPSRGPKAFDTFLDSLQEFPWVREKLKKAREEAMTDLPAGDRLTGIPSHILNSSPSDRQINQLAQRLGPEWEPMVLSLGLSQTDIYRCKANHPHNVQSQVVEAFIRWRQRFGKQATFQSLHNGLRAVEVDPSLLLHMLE
In words: GST pull-down in vitro or co-immunoprecipitation from 293 T cells (T7-CRADD with Flag-Pseudo-ICE, Panel C of FIG. 2). How it is done:
as §2, with “buffer.” for “buffer. The eluted proteins were resolved by SDS-PAGE and detected by Western blot analysis with horseradish peroxidase (HRP)-conjugated anti-T7 Ab (Novagen, Madison, Wis.). Bands were then detected using enhanced chemoluminescence kit (Amersham Pharmacia Biotech).”

The target in experiment [2] is T6, RICK (UniProt O43353 1-540, limits assumed, 35S label in the in vitro assay).
T6 construct: also called 35S-labeled RICK; RIP2
T6 sequence (O43353 whole entry): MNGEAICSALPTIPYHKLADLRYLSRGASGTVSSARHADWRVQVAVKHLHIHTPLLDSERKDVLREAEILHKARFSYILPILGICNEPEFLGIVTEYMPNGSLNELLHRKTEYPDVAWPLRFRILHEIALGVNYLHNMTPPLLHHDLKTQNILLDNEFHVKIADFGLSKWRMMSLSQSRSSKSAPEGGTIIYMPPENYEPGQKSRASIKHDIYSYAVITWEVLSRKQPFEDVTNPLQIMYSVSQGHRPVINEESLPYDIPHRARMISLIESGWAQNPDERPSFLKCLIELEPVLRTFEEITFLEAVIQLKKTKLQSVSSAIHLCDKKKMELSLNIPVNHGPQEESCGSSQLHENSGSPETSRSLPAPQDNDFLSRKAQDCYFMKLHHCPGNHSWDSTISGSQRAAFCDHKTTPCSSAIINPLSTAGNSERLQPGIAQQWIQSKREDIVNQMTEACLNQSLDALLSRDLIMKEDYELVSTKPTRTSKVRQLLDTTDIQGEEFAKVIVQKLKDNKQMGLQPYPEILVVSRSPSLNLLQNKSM
In words: restated from Example 3; construct not named.

The next experiment has as its target T7, GST (UniProt P08515 1-218 = GST).
T7 construct: also called gluthatione-S-transferase; GST alone
In words: GST pull-down on glutathione resin of in vitro translated 35S-labeled protein, autoradiography [panel B]. How it is done:
as §1

Experiment [3] deals with T5, CRADD. In words: GST pull-down in vitro or co-immunoprecipitation from 293 T cells (T7-CRADD with Flag-ICE-Like, Panel C of FIG. 2). How it is done: as §2, with “buffer.” for “buffer. The eluted proteins were resolved by SDS-PAGE and detected by Western blot analysis with horseradish peroxidase (HRP)-conjugated anti-T7 Ab (Novagen, Madison, Wis.). Bands were then detected using enhanced chemoluminescence kit (Amersham Pharmacia Biotech).”

Another experiment addresses T8, Flag-tagged RICK (UniProt O43353 1-540).
T8 construct: Expressed in 293 T cells, precipitated with anti-Flag antibodies; also called Flag-RICK; RIP2; not shown: Flag tag
Kind of experiment: co-immunoprecipitation from 293 T cells cotransfected with Flag-RICK, T7-Casp1C/A and rising amounts of T7-ICE-Like: IP anti-Flag, western blot anti-T7 [panel B]. How it is done:
as §2
(In general: In western blotting, separated proteins are transferred to a membrane and probed.)

The target in experiment [4] is T6, RICK. Kind of experiment: GST pull-down of 35S-labelled RICK (data not shown). How it is done: as §1

Sequence of c-IAP2 (Q13489 whole entry): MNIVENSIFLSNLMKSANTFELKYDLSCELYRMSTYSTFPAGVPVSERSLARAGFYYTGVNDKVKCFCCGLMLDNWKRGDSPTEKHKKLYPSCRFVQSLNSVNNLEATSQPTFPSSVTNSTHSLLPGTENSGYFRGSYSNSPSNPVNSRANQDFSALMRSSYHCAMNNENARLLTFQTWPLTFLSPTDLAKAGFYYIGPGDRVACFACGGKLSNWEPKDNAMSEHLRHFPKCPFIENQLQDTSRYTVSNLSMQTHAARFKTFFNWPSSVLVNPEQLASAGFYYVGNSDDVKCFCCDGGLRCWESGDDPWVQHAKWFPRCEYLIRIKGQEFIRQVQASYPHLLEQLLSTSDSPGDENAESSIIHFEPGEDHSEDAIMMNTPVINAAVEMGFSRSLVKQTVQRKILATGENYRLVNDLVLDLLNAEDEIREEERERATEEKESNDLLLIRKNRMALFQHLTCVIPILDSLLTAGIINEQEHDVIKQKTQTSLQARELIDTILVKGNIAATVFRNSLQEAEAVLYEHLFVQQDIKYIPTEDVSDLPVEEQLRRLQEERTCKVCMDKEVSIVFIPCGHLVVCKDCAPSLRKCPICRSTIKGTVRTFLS
T7 sequence (P08515 whole entry): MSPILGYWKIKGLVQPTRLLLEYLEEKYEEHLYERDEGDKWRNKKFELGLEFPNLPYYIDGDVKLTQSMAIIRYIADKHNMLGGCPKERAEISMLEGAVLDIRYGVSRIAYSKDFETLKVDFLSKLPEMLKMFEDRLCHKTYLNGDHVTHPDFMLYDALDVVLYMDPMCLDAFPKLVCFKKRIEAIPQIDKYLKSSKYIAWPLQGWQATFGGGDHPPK
T8 sequence (O43353 whole entry): as the sequence (O43353 whole entry) above

B1: Pseudo-ICE (other)
chain: MADKVLKEKRKLFIHSMGEGTINGLLDELLQTRVLNQEEMEKVKRENATVMDKTRALIDSVIPKGAQACQICITYICEEDSYLAETLGLSAGPIPGN
modifications: 35S-methionine label in the in vitro assay
notes: Used for the 35S-labelled in vitro translated product (made from a pcDNA3 construct); also called 35S-labeled Pseudo-ICE; in vitro translated Pseudo-ICE
B1: the binding result in the experiment with Apaf-1, in the experiment with c-IAP2, with c-CLAP, in the experiment with pro-caspase-4, with pro-caspase-2 and in the experiment with CRADD [1] was “no binding” in each case. Besides, the results for the binding result in the experiment with RICK [2] and with GST were “binds” and “no binding”, respectively.

B2: ICE-Like (other)
chain: MADQLLRKKRRIFIHSVGAGTINALLDCLLEDEVISQEDMNKVRDENDTVMDKARVLIDLVTGKGPKSCCKFIKHLCEEDPQLASKMGLH
modifications: 35S-methionine label in the in vitro assay
notes: Used for the 35S-labelled in vitro translated product (made from a pcDNA3 construct); also called 35S-labeled ICE-Like; in vitro translated ICE-Like
On to B2, for which the binding result with Apaf-1, with c-IAP2, with c-CLAP, in the experiment with pro-caspase-4, in the experiment with pro-caspase-2 and with RICK [2] was “no binding” throughout. The binding result with CRADD [3] and with GST was “no binding” throughout.

B3: T7-tagged ICE-Like (other, not shown: small tags and cut ends)
chain: MADQLLRKKRRIFIHSVGAGTINALLDCLLEDEVISQEDMNKVRDENDTVMDKARVLIDLVTGKGPKSCCKFIKHLCEEDPQLASKMGLH
notes: Expressed from pcDNA3 in 293 T cells, or from pMSCVneo retroviral vector in THP-1 cells; also called T7-ICE-Like
Regarding B3, the binding result with Flag-tagged RICK is on record as “no binding”.

B4: GST-conjugated ICE-Like (other)
chain: MADQLLRKKRRIFIHSVGAGTINALLDCLLEDEVISQEDMNKVRDENDTVMDKARVLIDLVTGKGPKSCCKFIKHLCEEDPQLASKMGLH
notes: GST is put first by the usual make of pGEX vectors; also called ICE-Like-GST; GST-ICE-Like; not shown: glutathione-S-transferase (GST) from vector pGEX-5X 3
Consider B4, for which the binding result with RICK [4] is “no binding”.

The values are drawn from US20030166192A1 (published 2003).
